Experimental data: US12570725
Several values for one entry are separate records, joined by “and”; a condition that tells them apart may be missing. Identical values can stand only once. Like-named read-outs stand apart in the source and are kept apart here.

B1: DH1017.IgM (antibody, V domains shown)
VH: QVQLQESGPGLVKPSQTLSLTCAVSGGSISSGDSYWSWIRQHPGKGLEWIGSIYYSGSTYYNPSLKSRVTIPIDTSKNQFSLKLSSVTAADTAVYYCARHVGDLRVNDAFDIWGQGTMVTVSS
VL: QSVLTQPPSVSAAPGQKVTISCSGSSSNIGNNFVSWYQRLPGTPPKLLIYDSDKRPSGIPDRFSGSKSGTSATLGITGLQTGDEGDYYCGTWDRSLSVVVFGGGTKLTVL
B2: DH1017.IgG (antibody, V domains shown)
VH: B1 VH
VL: B1 VL

Assays:
[1] = target: Dengue virus serotype 1 virion (Dengue virus serotype 1); experiment: cell-based or functional assay
[2] = target: Dengue virus serotype 2 virion (Dengue virus serotype 2); experiment: cell-based or functional assay
[3] = target: Dengue virus serotype 3 virion (Dengue virus serotype 3); experiment: cell-based or functional assay
[4] = target: Dengue virus serotype 4 virion (Dengue virus serotype 4); experiment: cell-based or functional assay
[5] = target: whole Zika virus (ZIKV) virion (Zika virus); experiment: cell-based or functional assay
[6] = target: whole Zika virus (ZIKV) virion (Zika virus); experiment: cell-based or functional assay; remark: listed apart in the source
[7] = target: whole Zika virus (ZIKV) virion (Zika virus); experiment: whole ZIKV virion ELISA, 5-fold dilutions from 100 ug/ml
[8] = target: whole Zika virus (ZIKV) virion (Zika virus); experiment: whole ZIKV virion ELISA; molar conversion with IgM ~970 KDa
[9] = target: whole Zika virus (ZIKV) virion (Zika virus); experiment: whole ZIKV virion ELISA; molar EC50 of IgM compared with IgG
[10] = target: whole Zika virus (ZIKV) virion (Zika virus); experiment: whole ZIKV virion ELISA; molar conversion with IgG ~150 KDa

Row | Binder | FRNT50 [1] | FRNT50 [2] | FRNT50 [3] | FRNT50 [4] | FRNT50 [5] | FRNT50 [6] | fold difference in neutralizing activity, IgM versus IgG at equal numbers of molecules [6] | EC50 [7] | EC50 [8] | fold difference of molar EC50 against DH1017.IgG [9] | EC50 [10]
1 | B1 | > 5 µg/mL | > 5 µg/mL | > 5 µg/mL | > 5 µg/mL | 6.57 ng/mL | 24.7 ng/ml and 25.5 pM | 40 fold | 0.046 µg/mL | 0.474 nM | 6 fold | 
2 | B2 |  |  |  |  |  |  |  | 0.045 µg/mL |  |  | 3 nM
